# Experimental data as given in the RNAGym collection of RNA variant scans (doi:10.7554/elife.80360).
# B1: HDV Ribozyme (parent)
# chain: GGCCGGCAUGGUCCCAGCCUCCUCGCUGGCGCCGGCUGGGCAACAUUCCGAGGGGACCGUCCCCUCGGUAAUGGCGAAUGGGACCCA
# Variants of: B1
# Assay: self-cleavage, relative activity (ratio to wild type); higher = more cleavage; co-transcriptional
row,Variant,self-cleavage
1,U20G C21U,0.26
2,U20G C22A,0.185
3,U20G C22G,0.266
4,U20G C22U,0.145
5,U20G C32G,0.0475
6,U20G C33G,0.185
7,U20G C41A,0.145
8,U20G C44G,0
9,U20G C44U,0.192
10,U20G C61A,0.142
11,U20G C64U,0.291
12,U20G C66G,0.511
13,U20G C75U,0.0875
14,U20G G25U,0.166
15,U20G G31A,0
16,U20G G31C,0
17,U20G G34A,0
18,U20G G38U,0.0573
19,U20G G53U,0.208
20,U20G G54A,0.201
21,U20G G54U,0.125

row,Variant,self-cleavage
1,U20G G55U,0.332
2,U20G G59C,0.361
3,U20G G59U,0.231
4,U20G G67C,0.554
5,U20G G73A,0.113
6,U20G G74U,0
7,U20G G76U,0.388
8,U20G G82A,0.123
9,U20G U37G,0
10,U20G U46A,0.192
11,U20G U47G,0.185
12,U20G U60C,0.111
13,U20G U65A,0.138
14,U20G U65C,0.222
15,U20G U69G,0.0831
16,U20G U72A,0.0875
17,C21A A42G,0.158
18,C21A A56U,0.108
19,C21A A70G,0
20,C21A C32G,0.0426
21,C21A C33G,0.0554

row,Variant,self-cleavage
1,C21A C36A,0.117
2,C21A C41A,0.121
3,C21A C48G,0.122
4,C21A C49A,0.157
5,C21A C49U,0.0272
6,C21A C62A,0.185
7,C21A C63G,0.0978
8,C21A C66A,0.0755
9,C21A C66U,0.0683
10,C21A C75U,0.0297
11,C21A C84U,0.0489
12,C21A G25U,0.113
13,C21A G28A,0.0268
14,C21A G29A,0.0875
15,C21A G29C,0.0604
16,C21A G31A,0.0482
17,C21A G34U,0.0647
18,C21A G38A,0.0237
19,C21A G40A,0.0647
20,C21A G53U,0.135
21,C21A G54A,0.0437

row,Variant,self-cleavage
1,C21A G59C,0.116
2,C21A G68C,0
3,C21A G73A,0.161
4,C21A G73U,0.0528
5,C21A G74A,0.0536
6,C21A G81A,0.0647
7,C21A U27G,0.0639
8,C21A U46G,0.138
9,C21A U47C,0
10,C21A U47G,0.0504
11,C21A U60A,0.0361
12,C21A U60C,0.0739
13,C21A U65A,0.0405
14,C21A U69G,0.0723
15,C21A U72G,0.166
16,C21A U79G,0.0396
17,C21G A43C,0
18,C21G A43G,0.128
19,C21G A43U,0
20,C21G A51C,0
